Reference: the supplement of paper PMC12455559
± gives the standard deviation of the averaged measurements.

What was measured:
[1] = purified protein yield per well (BCA); higher = higher soluble expression
Summary of the method: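 Candidate enzymes were produced in E. coli C41(DE3) grown in 2 mL autoinduction cultures containing 100 µg/mL kanamycin, first at 37 °C for 2 h and then at 18 °C for 40 h. After cell lysis, protein was captured on Ni-charged magnetic beads and freed by SUMO protease cleavage on an OT-2 robot. Purified protein yield per well was read with the Pierce Rapid Gold BCA kit. Values under 25 ug (0.1 mg/mL) fall below the detection threshold.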

[2] = PET hydrolysis, aromatic products released after 48 h (umol product/mg enzyme); higher = more PET depolymerization activity
Description: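 HTP-purified, SUMO-cleaved, tagless PET hydrolase candidates (5 ug, 1.43 mg/g PET) were incubated 48 h without shaking with 3.5 mg amorphous PET film (aFilm) or crystalline PET powder (cryPow) in 0.5 mL buffer: NaCitrate pH 4.5/5.5, NaPhosphate pH 6.5/7.5, glycine pH 8.5. Incubation was at 40 or 60 C. Aromatic products (TPA, MHET, BHET) in the supernatant were quantified by UV absorbance at 260/280 nm relative to buffer blanks and expressed per mg enzyme. LCC-ICCG was the positive control on every plate.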

[3] = substrate: cryPow, 40 °C, pH 4.5
[4] = substrate: cryPow, 40 °C, pH 5.5
[5] = substrate: cryPow, 40 °C, pH 6.5
[6] = substrate: cryPow, 40 °C, pH 7.5
[7] = substrate: cryPow, 60 °C, pH 4.5
[8] = substrate: cryPow, 60 °C, pH 5.5
[9] = substrate: cryPow, 60 °C, pH 6.5
[10] = substrate: cryPow, 60 °C, pH 7.5
[11] = substrate: cryPow, 40 °C, pH 8.5
[12] = substrate: cryPow, 60 °C, pH 8.5

| Sequence | purified protein yield per well [1] | PET hydrolysis [2, 3] | PET hydrolysis [2, 4] | PET hydrolysis [2, 5] | PET hydrolysis [2, 6] | PET hydrolysis [2, 7] | PET hydrolysis [2, 8] | PET hydrolysis [2, 9] | PET hydrolysis [2, 10] | PET hydrolysis ([2]; substrate: aFilm, 40 °C, pH 4.5) | PET hydrolysis ([2]; substrate: aFilm, 40 °C, pH 5.5) | PET hydrolysis ([2]; substrate: aFilm, 40 °C, pH 6.5) | PET hydrolysis ([2]; substrate: aFilm, 40 °C, pH 7.5) | PET hydrolysis ([2]; substrate: aFilm, 60 °C, pH 4.5) | PET hydrolysis ([2]; substrate: aFilm, 60 °C, pH 5.5) | PET hydrolysis ([2]; substrate: aFilm, 60 °C, pH 6.5) | PET hydrolysis ([2]; substrate: aFilm, 60 °C, pH 7.5) | PET hydrolysis [2, 11] | PET hydrolysis [2, 12] |
| --- | --- | --- | --- | --- | --- | --- | --- | --- | --- | --- | --- | --- | --- | --- | --- | --- | --- | --- | --- |
| AAPAGPAALPARPLAAAPADSPYERGPAPTEASITAERGPFAIEKIDVPAGSGTGFNRGTIYAPTDTSQGTFGAIAVSPGFMSPQSVIDWYGPRLASQGFVVMTLETKSLLDAPAARGDQLLAALDYMTGKSKAKDRIDASRLAVMGHSMGGGGTLEAANKRASLQAAVPLAPWDTNYDWKNVQAPTMIMGADNDTIAPADSMAERYYGTLTAVPEKAYLELRNAGHTTFNAPNTTIAKYAIAWMKRFVDDDARYEQFLCPEPSPSTTIAQYEGTCPTG [TEP067] | 49.7 µg | 5 | 12 | 14 | < 3 | – | – | – | – | – | – | – | – | – | – | – | – | – | – |
| ADNPYERGPAPTNASIEAVRGPYAVSQATVSSLAVTGFGGGTIYYPTTTSDGTFGAVAISPGYTGTQSSIAWLGPRLASQGFVVFTIDTNTTLDQPDSRGRQLLAALDYLTRVSPLRTRVDSTRLGVMGHSMGGGGSLEAAKSRPSLQAAIPLTPWNLDKTWPEIQTPTLIVGADGDSIAPVSSHAEPFYENLPSSLDRAYLELNGASHFAPNSSNTTIAKYSISWLKRFIDNDTRYEQFLCPLPRPSLTIEEYRGNCPHQS [TEP188] | 72.2 µg | < 3 | < 3 | < 3 | < 3 | < 3 | < 3 | < 3 | < 3 | – | – | – | – | – | – | – | – | – | – |
| ADNPYQRGPDPTPASVAAVNGPFATASVSVPAGYGFGGGMIYYPTDTSQGTFGGIAISPGYTALFSAELAWMGPWLASHGFVVIGIETNSRNDFDEARGTQLLAALDYLTQQSPVRTRVDPNRLAVSGHSMGGGGALNAAIRRPSLKAAVGLAPFLPSSNLANDRVPTMVFAGQQDTVVSPSYVTNLYNSLPATTESAYLEIAGGDHGFPVGRPNQVMIRTMLPFVKIFLDNDTRYSQFLCPLMDSTGVVTYRSTCPLLPPGLPTTPPTSTSSNPTVGPTTPSTTAPTTTPAPGGACTATYRTTNSWPGGFQGEVTITAGSSAINGWTVRWTLGSGQTISQVWNGEVSITGSTVSVRNAPYNGSLPASGSTTFGFLGGGSPSSPSLTCTSP [TEP165] | 433 µg | 4.5 ± 0.71 | 11 | 52 ± 2.8 | 67 ± 11 | 12 | 25 | 46 ± 1.4 | 45.5 ± 2.1 | < 3 | < 3 | 2 ± 2.8 | < 3 | 2 ± 2.8 | < 3 | 1.5 ± 2.1 | < 3 | – | – |
| AEPATIHGPAPTEESITAPTGPFEIDRETVPRSTVEGFGGGTIYYPTDTSEGTFSAVAIAPGYTAGQETLAWLGPRLASQGFVVFTIDTITTSDRPDARAEQLAASLDYLTGSSEVQDRIDPARLGVMGHSMGGGGALQAALDDPGLKAAIPMTPWNTVKDFSGVRTPTMIIGAQNDTVAPVAQHSEPFYESLPDDPGKAYLELAGASHFAPNRDDTTIAKSSIAWLKRFLDDDTRYDRFLCPPPQDPEISDYRATCPY [DP023] | 33 µg | – | < 3 | < 3 | < 3 | – | – | – | – | – | – | – | – | – | – | – | – | < 3 | – |
| AETTTQHGPDPTEGSITAPTGPFQTDQKTVPRSSVQGFGGGTIYYPTETSQGTFGAVTIAPGYTAGKESLAWLGPRLASQGFVVFTIDTITTSDQPDSRAKQLMASLDYLTGDSDVRDRIDTSRLAVMGHSMGGGGTLEAARDNRNLKAAIPMTPWDTTKDFSGVQTPTLIIGAQNDTIAPVAQHAKPFYGSLPDDPGKAYLELAGASHFAPNQDNTTIAKSSIAWLKRFVDDDTRYDQFLCPPPQDAEISDYQSTCPY [TEP037] | 77 µg | < 3 | 5 | < 3 | < 3 | < 3 | < 3 | < 3 | < 3 | – | – | – | – | – | – | – | – | – | – |
| ATAAPLPHAAADNPYQRGPDPTIAMIESTRGPFATASVSVPPGNGFNGGMIYYPTDTSQGTWGALAIVPGYTALFANEEAWMGPWLSSFGFVVIGVETNSRTDFDTARGTQLLAALDYLTTKSPVHDRVDPNRLSVLGHSMGGGGVVYATEHRPSLKAAVALAPFSPSQNMSTDTVPTMVIGGQNDTVVTPSYVDGLYATLPATTPSDFAQIAGADHVYYTHPNNVEMKLLIPWLKTFVDNDTRYTQFLCPTLPDPSTVSAYRPKCPYVPGGGTTPPPTGNTGPLHAVGAGKCLNAGASGSQAQIQDCTGGASQVWTHTDANQLSVTNGSQLCLDASGQGTSPGTKVITWACNGQPNQQWTVNSDGTVKGVQSGLCLDVSGASTASGALVQLWTCNGQPNQQWRLG [TEP062] | 85.2 µg | < 3 | < 3 | < 3 | < 3 | < 3 | < 3 | < 3 | < 3 | – | – | – | – | – | – | – | – | – | – |
| ATPARPASVAAAPAAVQRAADNPYQRGPAPTEASITAEKGPFAVETIPVPAGSGTGFNKGTVYAPTDTSEGTFGAIVVSPGFVSPEAWISWYGPRLASQGFVVMTLETNSLVDVPASRGDQLLAALDWLTGKSSVKNRIDASRTAVMGHSMGGGGTLEAANKRPSLKADIPLAPWDTNYNFPNIKTPTLIMGADNDLIAPASSMAESYYNNITTAPEKAYLLLKNAGHMTFVSPNTTIAKYSIAWMKRFVDNDTRYDQFLCPAPKPDANIAKYLDTCPNG [DP016] | 83 µg | – | 4 | 14 | 17 | – | 10 | 10 | 7 | – | – | – | – | – | – | – | – | 4 | < 3 |
| ATTAAAPAAAVRADSPYQRGPAPTEASVTAARGPFAIAQVTVPAGSGTGFNKGTIYYPTDTGQGTFGGVAVMPGFTSPQSVIQWLGPRLASQGFLVFTLDSLSLVDFPTARSQQLLAALDYLATRSTVRTRLDPNRLAVMGHSMGGGASLWAAQNRPSLKASVPLAPWETDTTWQGVRVPTMIIGGQADTVAPPATMAIPDYTSMTSAPEKAYLELRNGGHGAPATESPTVAKYALSWLKRFVDLDTRYDQFLCPAPAPTTAISQYRDTCPNG [DP058] | 52 µg | – | < 3 | < 3 | < 3 | – | < 3 | < 3 | < 3 | – | – | – | – | – | – | – | – | < 3 | < 3 |
| CAAGGPGASPGLQPTIASLSVDGAFKVMTYTDIPDVPEFGDATVYYPADTPTPIGGVAISPGWTEAQRHINWWGPRLASHGYAVLVLDTNDARRDQPEERAEALIAAVRILRGENDRAESPLQGRVDTGKMAIMGHSMGGGGTLIAANKYPDEIQAAIPFTPWQPDGDFGQITAPTLVMAGSADRVAGVADHAWPHYQSIPETTTKVFMEVDGGNHFIADTRRGTDLGTIGRYGIAWLKLYLDGDERYRSFIYGAEAEVDREKFSRYLTSP [TEP119] | 78.9 µg | < 3 | < 3 | < 3 | < 3 | < 3 | < 3 | < 3 | < 3 | – | – | – | – | – | – | – | – | – | – |
| CATAGSALVSAPSLSGDGSYEVQTYTDFPDVPEFGAATIYYPVGASEPMGGVAIAPGFTEEQRHIAWWGPRLASHGYAVLVLDTNDRRERPDARADALIAGVTLLRAEGRRRGSPLFGRIDAAKMAIMGHSMGGGGALLAADEHSDLIRAAIPFTPWEPETDLRGISAPTLVLAGAADRVAEVEGHAWRHFSMIPESTPKVYMEIAGGDHYIADTTRGMDLATVGRYAIAWLKLYVDGDEQYRDLIYGEIPPADAAKFSRYVVNP [TEP157] | 80.2 µg | < 3 | < 3 | < 3 | < 3 | < 3 | < 3 | < 3 | < 3 | – | – | – | – | – | – | – | – | – | – |
| DQIGQAPTASNITGDGSFAVTSSAVSGQTGFGGGTVYYPTQTGTYPVVAIMPGFLELWDAIKWMGPRLASWGYVVVGVNPNSVFDLPDSRGSQLLAALNWAVGSAPSAVQSRADGTRRGVVGYSMGGGGTLEALSRDTSGKVLAGVAFSPWDTNQNWSTVRQPEFIVGAQNDTVAPPAQHAIPFYNSLAGPKTYVELAGADHLWPTSDNPTGSRAMVSWLKRWLNSDSRFTPFTCGFTGSAISASMSNAC [ESM047] | 48.3 µg | 20 | 55 | 47 | 8 | – | – | – | – | – | – | – | – | – | – | – | – | – | – |
| DSPYERGPDPTTSSIEASSGPFDVDEDSVSSWSVSGFGGGTVYYPEDDGQTYGGVVIAPGYTESSSAMAWLGEYLASHGFVAFNIDTNTRYDQPDSRGRQIEAALDYLAEDSDVSDLVDPNRLAAMGHSMGGGGTLAAAEDRPELKAAIPLTPWHTDKTWGGVTVPTMIIGAENDTIAPNSSHSIPFYNSLSTSTERAYVELDGEGHLVTSSRNTELASNSVSWLKVFVDEDDRYEQFLCPAPSTGWGSPYSDYRDSCPYI [DP033] | 31 µg | – | < 3 | < 3 | < 3 | – | – | – | – | – | – | – | – | – | – | – | – | < 3 | – |
| DTGSHERGPDPTEQALEARSGPFDTDDERVSSLGASGFGGGTIYYPEDTSEGDFGAVALAPGYTASSTSYSSLAERIASHGFVVLAFDTNTRYDQPNSRGRQMESALEYLTEDSDVTDRIDTDRQAVSGHSMGGGGTLAAADDNPDLQAAVPLTPWHTQKSWSGMQVPTMIIGAENDSIASVRSHSIRFYESLPGSLEKGYAEVDGASHFAPNSNDDTVAKYTITWLKRFVDNDTRYEQFLCPPPDSGGWGDDLSDYRDSCPTG [DP052] | 36 µg | – | < 3 | < 3 | < 3 | – | – | – | – | – | – | – | – | – | – | – | – | < 3 | – |
